6 molecules from patent WO2016071355A1 (dated 2016) can be followed below.

The target of assay [1] is T1, soluble extracellular region of cynomolgus monkey CD38 antigen fused to a 6-His-tag (cynomolgus monkey, UniProt Q5VAN0 45-301).
T1 construct: also called cynomolgus CD38
The experiment in a line: SPR. For orientation: In SPR one partner is held on a chip, and binding of the other changes the refractive index at the surface.

The target in assay [2] is human CD38 peptide-Fc fusion F1 (human, UniProt P0DOX5 223-449 = IgG part). As to the kind of experiment: SPR, antibody immobilized, peptide-Fc injected at 1000 nM.
The target of assay [3] is human CD38 peptide-Fc fusion F2 (human, UniProt P0DOX5 223-449 = IgG part). The description is as above.
For assay [4], the target named is T2, human CD38 peptide-Fc fusion F3 (human, UniProt P0DOX5 223-449 = IgG part).
T2 construct: doubtful; also called F3 construct
The description is as above.

Assay [5] concerns the target T3, human CD38 peptide-Fc fusion F4 (human, UniProt P0DOX5 223-449 = IgG part).
T3 construct: doubtful
Described as above.

The target of assay [6] is human CD38 peptide-Fc fusion F5 (human, UniProt P0DOX5 223-449 = IgG part). The description is as above.
The target of assay [7] is T4, human CD38 peptide-Fc fusion F6 (human, UniProt P0DOX5 195-449 = IgG part). The assay is described as above.
The target in assay [8] is human CD38 peptide-Fc fusion F7 (human, UniProt P0DOX5 223-449 = IgG part). The assay is described as above.
Assay [9] concerns the target human CD38 peptide-Fc fusion F8 (human, UniProt P0DOX5 223-449 = IgG part). The description is as above.
For assay [10], the target named is human CD38 peptide-Fc fusion F9 (human, UniProt P0DOX5 223-449 = IgG part). The assay is described as above.
For assay [11], the target named is human CD38 peptide-Fc fusion F10 (human, UniProt P0DOX5 223-449 = IgG part). The description is as above.
Assay [12] addresses human CD38 peptide-Fc fusion F11 (human, UniProt P0DOX5 223-449 = IgG part). The assay is described as above.
Assay [13] addresses human CD38 peptide-Fc fusion F12 (human, UniProt P0DOX5 223-449 = IgG part). The assay is described as above.
Assay [14] deals with human CD38 peptide-Fc fusion F13 (human, UniProt P0DOX5 223-449 = IgG part). The assay is described as above.
Assay [15] addresses human CD38 peptide-Fc fusion F14 (human, UniProt P0DOX5 223-449 = IgG part). The assay is described as above.
The target of assay [16] is human CD38 peptide-Fc fusion F15 (human, UniProt P0DOX5 223-449 = IgG part). The description is as above.
In assay [17] the target is human CD38 peptide-Fc fusion F16 (human, UniProt P0DOX5 223-449 = IgG part). Described as above.
The target of assay [18] is human CD38 peptide-Fc fusion F17 (human, UniProt P0DOX5 223-449 = IgG part). Described as above.
The target of assay [19] is human CD38 peptide-Fc fusion F18 (human, UniProt P0DOX5 223-449 = IgG part). Described as above.
Assay [20] addresses human CD38 peptide-Fc fusion F19 (human, UniProt P0DOX5 223-449 = IgG part). The description is as above.
The target of assay [21] is human CD38 peptide-Fc fusion F20 (human, UniProt P0DOX5 223-449 = IgG part). The assay is described as above.
The target in assay [22] is T5, soluble extracellular region of human CD38 fused to a 6-His-tag (human, UniProt P28907 43-300).
T5 construct: also called human CD38 extracellular domain with a poly-histidine tag; human CD38 antigen
As to the kind of experiment: SPR, equilibrium response, antibody captured on protein G.

Assay [23] has as its target T2, human CD38 peptide-Fc fusion F3. The experiment in a line: SPR.
Assay [24] deals with T4, human CD38 peptide-Fc fusion F6. The experiment in a line: SPR.
Assay [25] concerns the target T5, soluble extracellular region of human …. The experiment in a line: SPR.
For assay [26] the target is unchanged. As to the kind of experiment: SPR, antibody captured on protein G, CD38-His injected.
The target in a further assay is T6, Protein A (Staphylococcus aureus, UniProt P38507 212-269).
T6 construct: The resin ligand is a commercial recombinant Protein A derivative
As to the kind of experiment: protein A affinity chromatography.

The target of a further assay is Protein G (UniProt P19909 303-497). The experiment in a line: protein G affinity chromatography, SDS-PAGE.

B1: human 767 antibody (antibody, V domains shown)
VH: QVQLVESGGGLVQPGGSLRLSCAASGFTFSSYWMSWVRQAPGKGLEWVANIKQDGSEKYYVDSVKGRFTISRDNAKNSLYLQMNSLRAEDTAVYYCAREGRTGYFDYWGQGTLVTVSS
VL: QSVLTQPPSASGTPGQRVTISCSGSTSNIGTNYVYWYQQLPGTAPKLLIYRNDQRPSGVPDRFSGSKSGTSASLAISGLRSEDEADYYCAAWDDSRSGVYAFGTGTKVTVLR
notes: Human IgG1
One may read the Kd as the free concentration of one partner at which half of the binding sites on the other are occupied at equilibrium, for simple one-to-one binding. B1: the Kd in [1] is roughly 1200 nM; in [22], roughly 300 nM. The binding result in assay [2] was “no binding (tested: 1000 nM)”; in assay [3], “no binding (tested: 1000 nM)”; in assay [4], “binds”; in [5] it was “no binding (tested: 1000 nM)”; in assay [6], “no binding (tested: 1000 nM)”; in [7], “no binding (tested: 1000 nM)”. Also, the binding result in assay [8], in assay [9], in [10], in [11], in [12] and in assay [13] was “no binding (tested: 1000 nM)” in each case. Further, the binding result in assay [14], in assay [15], in assay [16], in assay [17], in assay [18] and in [19] was “no binding (tested: 1000 nM)” each time. Moreover, the binding result in assay [20] and in assay [21] was “no binding (tested: 1000 nM)” throughout.

B2: SAR650984 antibody (antibody, human IgG1, kappa, V domains shown)
VH: QVQLVQSGAEVAKPGTSVKLSCKASGYTFTDYWMQWVKQRPGQGLEWIGTIYPGDGDTGYAQKFQGKATLTADKSSKTVYMHLSSLASEDSAVYYCARGDYYGSNSLDYWGQGTSVTVSS
VL: DIVMTQSHLSMSTSLGDPVSITCKASQDVSTVVAWYQQKPGQSPRRLIYSASYRYIGVPDRFTGSGAGTDFTFTISSVQAEDLAVYYCQQHYSPPYTFGGGTKLEIKR
notes: also called humanized SAR650984 antibody
As for B2, the binding result is “no binding” in [23] and “binds” in assay [24].

B3: first humanized 9G7 antibody prototype (antibody, human IgG1, kappa, V domains shown)
VH: QVTLKESGPTLVKPTQTLTLTCTFSGLSLSTSGKGVGWIRQPPGKALEWLAHIWWDDDKRYNPALKSRLTITKDTSKNQVVLTMTNMDPVDTATYYCARIELGRSYVMDYWGQGTLVTVSS
VL: DIQMTQSPSSLSASVGDRVTITCQASQDVITSVAWFQQKPGKAPKLLIYSASYRYTGVPSRFSGSGSGTDFTFTISSLQPEDIATYYCQQHYTIPLTFGQGTKLEIKR
notes: Human IgG1 isotype; also called first antibody prototype; first humanized prototype
With B3, in assay [25], the dissociation constant Kd was 1 nM and the “fold lower binding than the mouse parental antibody” value came to 3 fold.

B4: humanized 9G7 best-framework antibody (antibody, human IgG1, kappa, V domains shown)
VH: EVQLVESGGGLVQPGGSLRLSCAFSGLSLSTSGKGVGWIRQAPGKGLEWLAHIWWDDDKRYNPALKSRLTISKDTSKNTVYLQMNSLRAEDTAVYYCARIELGRSYVMDYWGQGTLVTVSS
VL: DIQMTQSPSSLSASVGDRVTITCRASQDVITSVAWFQQKPGKAPKLLIYSASYRYTGVPSRFSGSGSGTDFTLTISSLQPEDFATYYCQQHYTIPLTFGQGTKVEIKR
notes: Human IgG1
As for B4, the Kd stood at 1 nM in [1] and 0.4 nM in [26].

B5: humanized 9G7 best-fit antibody (antibody, human IgG1, kappa, V domains shown)
VH: QVTLKESGPTLVKPTQTLTLTCTFSGLSLSTSGKGVGWIRQPPGKALEWLAHIWWDDDKRYNPALKSRLTITKDTSKNQVVLTMTNMDPVDTATYYCARIELGRSYVMDYWGQGTLVTVSS
VL: DIQMTQSPSSLSASVGDRVTITCQASQDVITSVAWYQQKPGKAPKLLIYSASYRYTGVPSRFSGSGSGTDFTFTISSLQPEDIATYYCQQHYTIPLTFGQGTKLEIKR
notes: Human IgG1; also called 9G7 best-fit F36Y humanized variant
On to B5, for which the “fold improvement of affinity over the first humanized prototype” value in assay [25] was determined as 2 fold. The Kd stood at 3.2 nM in assay [1] and 0.5 nM in assay [26].

B6: BTB homodimer construct lacking the VH3 based scFv (other)
chain: DKTHTCPPCPAPEAAGGPSVFLFPPKPKDTLMISRTPEVTCVVVDVSHEDPEVKFNWYVDGVEVHNAKTKPREEQYNSTYRVVSVLTVLHQDWLNGKEYKCKVSNKALPAPIEKTISKAKGQPREPEVATFPPSRDELTKNQVTLVCLVTGFYPSDIAVEWESNGQPENNYKTDPPLLESQGSFALSSRLRVDKSRWQQGNVFSCSVMHEALHNHYTQKSLSLSPGK
For B6, the binding result with Protein A and with Protein G was “no binding” in each case.
